Experiments:
[1] = molecular target: T1, human PD-1 expressed on cells (human, UniProt Q15116 25-198); experiment: cell-based or functional assay
[2] = molecular target: T2, human PD-1 (soluble / purified antigen, construct not stated) (human, UniProt Q15116 25-170, limits assumed); experiment: KinExA, n = 2
T2 construct: also called soluble antigen

[3] = molecular target: T1, human PD-1 expressed on cells; experiment: cell-based or functional assay; remark: listed apart in the source
[4] = molecular target: T1, human PD-1 expressed on cells; experiment: competition with DyL650-PD-L1 for binding to cell surface human PD-1 (CHO), flow cytometry
[5] = molecular target: T2, human PD-1 (soluble / purified antigen, …); experiment: Biacore (SPR), n = 4; Biacore, n = 4 (not KinExA 575 pM)
[6] = molecular target: T1, human PD-1 expressed on cells; experiment: cell-based or functional assay; remark: listed apart in the source
[7] = molecular target: T2, human PD-1 (soluble / purified antigen, …); experiment: Biacore (SPR), n = 2
[8] = molecular target: T2, human PD-1 (soluble / purified antigen, …); experiment: KinExA, n = 1
[9] = molecular target: T3, murine PD-1 (mouse, UniProt Q02242 25-167, limits assumed); experiment: assay not described; stated in the discussion of the crystal structure
T3 construct: also called mouse PD-1
T3 sequence (looked up): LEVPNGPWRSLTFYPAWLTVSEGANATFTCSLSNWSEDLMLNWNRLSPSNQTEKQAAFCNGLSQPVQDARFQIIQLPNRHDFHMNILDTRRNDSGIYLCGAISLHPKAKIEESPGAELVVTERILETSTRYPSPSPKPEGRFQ

T1 sequence (Q15116 25-198 limits assumed): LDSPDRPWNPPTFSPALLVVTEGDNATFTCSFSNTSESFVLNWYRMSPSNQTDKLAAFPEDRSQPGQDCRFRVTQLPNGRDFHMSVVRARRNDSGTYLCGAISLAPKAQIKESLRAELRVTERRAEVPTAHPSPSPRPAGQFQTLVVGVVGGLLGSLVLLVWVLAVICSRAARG
T2 sequence (Q15116 25-170 limits assumed): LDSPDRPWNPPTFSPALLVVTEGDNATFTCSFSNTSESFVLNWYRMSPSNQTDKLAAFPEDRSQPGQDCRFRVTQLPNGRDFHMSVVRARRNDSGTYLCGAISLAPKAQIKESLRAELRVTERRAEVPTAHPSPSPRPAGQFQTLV

B1: PD1AB-1 (antibody, V domains shown)
VH: EVQLVQSGAEVKKPGATVKISCKVSGFNIKDTYMHWVQQAPGKGLEWMGRIDPANGDRKYDPKFQGRVTITADTSTDTAYMELSSLRSEDTAVYYCARSGPVYYYGSSYVMDYWGQGTTVTVSS
VL: DIVMTQSPDSLAVSLGERATINCKSGQSVLYSSNQKNFLAWYQQKPGQPPKLLIYWASTRESGVPDRFSGSGSGTDFTLTISSLQAEDVAVYYCHQYLYSWTFGQGTKLEIKR
notes: also called parental clone PD1AB-1; HC/LC TOPO vector 3015/3017
CD4+ T cell IL-2 inhibition (EC50) [1]: 22 nM
Kd [2]: 0.575 nM
IFN-γ EC50, PBMC reactivation assay [3]: 46 nM
IFN-γ EC75, PBMC reactivation assay [3]: 85 nM
IL-2 EC50, PBMC reactivation assay [3]: 21 nM
IL-2 EC75, PBMC reactivation assay [3]: 40 nM
IL-17 EC50, PBMC reactivation assay [3]: 41 nM
IL-17 EC75, PBMC reactivation assay [3]: 65 nM
IC50 [4]: > 100 nM
Kd [5]: 5 nM
IL-2 EC50, human whole blood assay [6]: 8.3 nM
hIFN-γ EC50, human whole blood assay [6]: 5.9 nM
hIL-17 EC50, human whole blood assay [6]: 7.2 nM

B2: PD1AB-5 (antibody, V domains shown)
VH: EVQLVQSGAEVKKPGATVKISCKASGFNIKDTYMHWVQQAPGKGLEWMGRIDPANGDRKYDPKFQGRVTITADTSTDTAYMELSSLRSEDTAVYYCARSGPVYYYGSSYVMDYWGQGTTVTVSS
VL: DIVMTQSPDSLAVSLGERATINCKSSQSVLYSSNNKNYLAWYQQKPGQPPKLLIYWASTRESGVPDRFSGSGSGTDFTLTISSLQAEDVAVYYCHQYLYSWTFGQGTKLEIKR
notes: also called HC/LC TOPO vector 3650/3193
CD4+ T cell IL-2 inhibition (EC50) [1]: 15 nM
Kd [7]: 6 nM
Kd [8]: 0.4 nM
IL-2 EC50, PBMC reactivation assay [3]: 36 nM
IL-2 EC75, PBMC reactivation assay [3]: 58 nM
IC50 [4]: > 100 nM

B3: PD1AB-2 (antibody, V domains shown)
VH: EVQLVQSGAEVKKPGATVKISCKVSGFNIKDTYMHWVQQAPGKGLEWMGRIDPANGDRKYDPKFQGRVTITADTSTDTAYMELSSLRSEDTAVYYCARSGPVYYYGSSYVMDYWGQGTTVTVSS
VL: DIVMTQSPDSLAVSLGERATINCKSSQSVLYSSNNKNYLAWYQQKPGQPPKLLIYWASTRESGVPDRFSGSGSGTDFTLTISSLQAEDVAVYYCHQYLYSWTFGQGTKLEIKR
notes: also called HC/LC TOPO vector 3015/3193
CD4+ T cell IL-2 inhibition (EC50) [1]: 27 nM
Kd [7]: 5 nM
Kd [8]: 0.425 nM
IFN-γ EC50, PBMC reactivation assay [3]: 58 nM
IFN-γ EC75, PBMC reactivation assay [3]: 91 nM
IL-2 EC50, PBMC reactivation assay [3]: 24 nM
IL-2 EC75, PBMC reactivation assay [3]: 42 nM
IL-17 EC50, PBMC reactivation assay [3]: 36 nM
IL-17 EC75, PBMC reactivation assay [3]: 59 nM
IC50 [4]: > 100 nM
IL-2 EC50, human whole blood assay [6]: 8.4 nM
hIFN-γ EC50, human whole blood assay [6]: 7.6 nM
hIL-17 EC50, human whole blood assay [6]: 8.9 nM

B4: PD1AB-6 (antibody, IgG1, V domains shown)
VH: EVQLVQSGAEVKKPGATVKISCKASGFNIKDTYMHWVQQAPGKGLEWMGRIDPANGDRKYDPKFQGRVTITADTSTDTAYMELSSLRSEDTAVYYCARSGPVYYYGSSYVMDYWGQGTTVTVSS
VL: DIVMTQSPDSLAVSLGERATINCKSGQSVLYSSNQKNFLAWYQQKPGQPPKLLIYWASTRESGVPDRFSGSGSGTDFTLTISSLQAEDVAVYYCHQYLYSWTFGQGTKLEIKR
notes: also called HC/LC TOPO vector 3650/3017
CD4+ T cell IL-2 inhibition (EC50) [1]: 16 nM
Kd [7]: 6 nM
Kd [8]: 0.45 nM
IFN-γ EC50, PBMC reactivation assay [3]: 36 nM
IFN-γ EC75, PBMC reactivation assay [3]: 67 nM
IL-2 EC50, PBMC reactivation assay [3]: 24 nM
IL-2 EC75, PBMC reactivation assay [3]: 33 nM
IL-17 EC50, PBMC reactivation assay [3]: 37 nM
IL-17 EC75, PBMC reactivation assay [3]: 56 nM
IC50 [4]: > 100 nM
binding result [9]: no binding
IL-2 EC50, human whole blood assay [6]: 4 nM
hIFN-γ EC50, human whole blood assay [6]: 4.1 nM
hIL-17 EC50, human whole blood assay [6]: 3.6 nM

B5: PD1AB-4 (antibody, V domains shown)
VH: EVQLVQSGAEVKKPGATVKISCKVSGFNIKDTYMHWVQQAPGKGLEWMGRIDPANGDRKYDPKFQGRVTITADTSTNTAYMELSSLRSEDTAVYYCARSGPVYYYGSSYVMDYWGQGTTVTVSS
VL: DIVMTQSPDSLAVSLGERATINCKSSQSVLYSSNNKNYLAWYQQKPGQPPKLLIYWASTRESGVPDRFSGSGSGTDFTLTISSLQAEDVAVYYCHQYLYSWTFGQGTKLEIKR
notes: also called HC/LC TOPO vector 3653/3193
CD4+ T cell IL-2 inhibition (EC50) [1]: 23 nM
Kd [7]: 6 nM
Kd [8]: 0.5 nM
IFN-γ EC50, PBMC reactivation assay [3]: 34 nM
IFN-γ EC75, PBMC reactivation assay [3]: 64 nM
IL-2 EC50, PBMC reactivation assay [3]: 20 nM
IL-2 EC75, PBMC reactivation assay [3]: 39 nM
IL-17 EC50, PBMC reactivation assay [3]: 27 nM
IL-17 EC75, PBMC reactivation assay [3]: 52 nM
IC50 [4]: > 100 nM
IL-2 EC50, human whole blood assay [6]: 10.2 nM
hIFN-γ EC50, human whole blood assay [6]: 9.2 nM
hIL-17 EC50, human whole blood assay [6]: 9.9 nM

B6: PD1AB-3 (antibody, V domains shown)
VH: EVQLVQSGAEVKKPGATVKISCKVSGFNIKDTYMHWVQQAPGKGLEWMGRIDPANGDRKYDPKFQGRVTITADTSTNTAYMELSSLRSEDTAVYYCARSGPVYYYGSSYVMDYWGQGTTVTVSS
VL: DIVMTQSPDSLAVSLGERATINCKSGQSVLYSSNQKNFLAWYQQKPGQPPKLLIYWASTRESGVPDRFSGSGSGTDFTLTISNLQAEDVAVYYCHQYLYSWTFGQGTKLEIKR
notes: also called HC/LC TOPO vector 3653/3646
CD4+ T cell IL-2 inhibition (EC50) [1]: 21 nM
Kd [7]: 7 nM
Kd [8]: 0.35 nM
IL-2 EC50, PBMC reactivation assay [3]: 24 nM
IL-2 EC75, PBMC reactivation assay [3]: 46 nM
IC50 [4]: > 100 nM

Source: US20180289802A1 (CELGENE, published 2018)
